One block for each substance: values may come before it.
What was measured:
[1] = target: glyceraldehyde-3-phosphate dehydrogenase (GAPDH) of Thermosynechococcus elongatus (Thermosynechococcus elongatus BP-1); experiment: crystal structure
[2] = target: glyceraldehyde-3-phosphate dehydrogenase (GAPDH) of Thermosynechococcus elongatus (Thermosynechococcus elongatus BP-1); experiment: crystal structure; remark: listed apart in the source
[3] = target: glyceraldehyde-3-phosphate dehydrogenase (GAPDH) of Thermosynechococcus elongatus (Thermosynechococcus elongatus BP-1); experiment: cryo-EM structure
[4] = target: phosphoribulokinase (PRK) of Thermosynechococcus elongatus, native (Thermosynechococcus elongatus (endogenous in T. elongatus cells)); experiment: cryo-EM structure

stoichiometry N (CP12 per GAPDH tetramer) [1]: 2
stoichiometry N (CP12 per GAPDH tetramer) [2]: 4
stoichiometry N (CP12 per GAPDH tetramer) [3]: 2
Substance: CP12 of Thermosynechococcus elongatus (natural protein)

stoichiometry N [4]: 2
Substance: phosphoribulokinase (PRK) of Thermosynechococcus elongatus, native (enzyme)

stoichiometry N [1]: 4
stoichiometry N [3]: 4
Substance: glyceraldehyde-3-phosphate dehydrogenase (GAPDH) of Thermosynechococcus elongatus (enzyme)

From doi:10.1101/414334
